Our source for the EC50 (nM), cAMP in CHO/GCGR and EC50 (nM), cAMP in CHO/GLP-1R values is US20140212440A1.

Where two headings read alike, the source gives them in different places. Where no end group is shown, it is not given here. [ ]: non-standard residue; d: D form. The star is where a group is joined. Acetyl(2-(4-imidazolyl)) = O=C(Cc1c[nH]cn1)*

Common to all, as to assay: cell-based or functional assay
The target in experiment [1] is human glucagon receptor (human) (UniProt P47871).
The target of experiment [2] is human GLP-1 receptor (human) (UniProt P43220).
human GLP-1 receptor (human), sequence (P43220 24-463): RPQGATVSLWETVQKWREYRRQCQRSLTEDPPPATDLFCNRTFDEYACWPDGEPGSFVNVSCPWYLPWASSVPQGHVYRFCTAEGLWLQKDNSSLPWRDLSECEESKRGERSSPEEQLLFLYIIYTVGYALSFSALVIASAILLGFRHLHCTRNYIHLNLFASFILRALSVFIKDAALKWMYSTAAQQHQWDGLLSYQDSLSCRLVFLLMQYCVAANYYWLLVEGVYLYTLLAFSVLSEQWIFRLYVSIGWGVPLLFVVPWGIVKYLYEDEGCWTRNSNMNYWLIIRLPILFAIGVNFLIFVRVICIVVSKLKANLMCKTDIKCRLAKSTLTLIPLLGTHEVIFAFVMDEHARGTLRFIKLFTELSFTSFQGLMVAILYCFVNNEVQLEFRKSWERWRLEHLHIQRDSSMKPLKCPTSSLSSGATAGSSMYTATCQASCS
For experiment [3], the target named is human glucagon receptor (human) (UniProt P47871). This is another data set of the same source.

human glucagon receptor (human), sequence (P47871 26-477): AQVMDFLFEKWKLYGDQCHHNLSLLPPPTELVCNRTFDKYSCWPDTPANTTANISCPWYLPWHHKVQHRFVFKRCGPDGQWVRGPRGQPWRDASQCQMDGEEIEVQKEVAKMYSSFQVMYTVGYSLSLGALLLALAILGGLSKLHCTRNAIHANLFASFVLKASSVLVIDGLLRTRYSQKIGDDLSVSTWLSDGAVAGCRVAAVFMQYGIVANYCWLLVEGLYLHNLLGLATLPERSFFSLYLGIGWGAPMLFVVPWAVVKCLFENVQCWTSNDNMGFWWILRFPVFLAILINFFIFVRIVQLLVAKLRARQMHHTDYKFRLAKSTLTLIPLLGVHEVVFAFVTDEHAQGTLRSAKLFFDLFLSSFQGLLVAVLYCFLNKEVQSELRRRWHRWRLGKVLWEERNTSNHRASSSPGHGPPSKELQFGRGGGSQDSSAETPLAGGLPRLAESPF

On to “GLP-1 (from UniProt P01275 92-128) (ligand)”, for which the EC50 (nM), cAMP in CHO/GCGR in experiment [1] is over 1000 nM.

On to [Acetyl(2-(4-imidazolyl))]SQGTFTSDYSRYLDEEAVRLFIEWIRNGGPSSGAPPPSK [oxyntomodulin derivative (SEQ ID NO. 18)], for which, in experiment [2], the EC50 (nM), cAMP in CHO/GLP-1R turned out to be 96.3 nM. Also, the EC50 (nM), cAMP in CHO/GCGR in experiment [3] was over 1000 nM.

Take [Acetyl(2-(4-imidazolyl))]SQGTFTSDLSRQLEEEAVRLFIEWLMNK [oxyntomodulin derivative (SEQ ID NO. 8)]: in experiment [2], the EC50 (nM), cAMP in CHO/GLP-1R is 420 nM. This molecule displayed an EC50 (nM), cAMP in CHO/GCGR in experiment [3] of over 1000 nM.

[Acetyl(2-(4-imidazolyl))]SQGTFTSDYSKYLDERRAQDFVAWLKNTGPSSGAPPPS [oxyntomodulin derivative (SEQ ID NO. 3)] yielded an EC50 (nM), cAMP in CHO/GLP-1R in experiment [2] of over 1000 nM. The same molecule displayed an EC50 (nM), cAMP in CHO/GCGR in experiment [3] of 638 nM.
